Results published in PMC4947154, “Structural basis of transcobalamin recognition by human CD320 receptor” (Nature Communications, 2016).

T1: CD320 extracellular domain, residues 53-199 (crystallization construct) (human, UniProt Q9NPF0 53-199)
T1 construct: CD320 (transcobalamin receptor), human, residues 53-199 of the extracellular domain; native secretion signal replaced with a Melittin secretion signal; Density seen for LDLR-A1 residues 53-89 and LDLR-A2 residues 129-171; none for the EGF-like domain (90-128); also called N-terminal 22 amino acid deletion of the receptor; not shown: His9, N-terminal, cleaved; MBP, N-terminal, cleaved
T1 sequence (looked up): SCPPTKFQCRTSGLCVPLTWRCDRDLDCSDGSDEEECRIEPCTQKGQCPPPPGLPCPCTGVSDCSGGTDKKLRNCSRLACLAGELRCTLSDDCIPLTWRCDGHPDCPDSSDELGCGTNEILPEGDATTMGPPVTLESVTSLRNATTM

B1: human transcobalamin (holo-TC, cyanocobalamin-bound) (natural protein, UniProt P20062 19-427, looked up)
chain: EMCEIPEMDSHLVEKLGQHLLPWMDRLSLEHLNPSIYVGLRLSSLQAGTKEDLYLHSLKLGYQQCLLGSAFSEDDGDCQGKPSMGQLALYLLALRANCEFVRGHKGDRLVSQLKWFLEDEKRAIGHDHKGHPHTSYYQYGLGILALCLHQKRVHDSVVDKLLYAVEPFHQGHHSVDTAAMAGLAFTCLKRSNFNPGRRQRITMAIRTVQEEILKAQTPEGHFGNVYSTPLALQFLMTSPMRGAELGTACLKARVALLASLQDGAFQNALMISQLLPVLNHKTYIDLIFPDCLAPRVMLEPAAETIPQTQEIISVTLQVLSLLPPYRQSISVLAGSTVEDVLKKAHELGGFTYETQASLSGPYLTSVMGKAAGEREFWQLLRDPNTPLLQGIADYRPKDGETIELRLVSW
notes: transcobalamin (TC), human, residues 1-409, cDNA GenBank BC001176.1 harbouring R209Q; native secretion signal replaced with a Melittin secretion signal; Purified in the presence of excess cyanocobalamin (Cbl-CN), so the Cbl site is occupied; R209Q came with the bought cDNA clone (ImaGenes); also called tag-less TC; full-length TC; source: Sf21 insect cells (Multibac baculovirus), secreted, …

Legend:
[1] = biological target: B1; assay: ELISA; solid-phase binding assay: biotinylated MBP-tagged receptor on Neutravidin plates, tag-less TC serially diluted in 20 mM Tris pH 7.5, 0.5 mM CaCl2, 150 mM NaCl, 0.05% Tween-20, 1 h RT; TC detected with antibody A-5; single-site fit, n=5; settings: both partners purified
[2] = biological target: T1, CD320 extracellular domain, residues …; assay: crystal structure; co-crystals of the purified complex, sitting drop, 20 °C; settings: both partners purified

Binder | Kd [1] | stoichiometry N [2]
MBP-tagged, biotinylated CD320 LDLR-A2 domain (residues 125-199, Avi Tag) (domain or fragment, biotin on the Avi Tag (BirA), CD320, human, LDLR type A domain 2 construct, residues 125-199; source: Sf21 insect cells (Multibac baculovirus), secreted, purified (Ni-NTA, no MBP cleavage), biotinylated with BirA; not shown: His9, N-terminal, kept; MBP, N-terminal, kept) not shown | ~10 nM | 
B1 |  | 1 TC:CD320
